PMC7968930, “A conserved cell division protein directly regulates FtsZ dynamics in filamentous and unicellular actinobacteria” (eLife, 2021)

Assays:
[1] = molecular target: SepH-NTD (residues 1-186 of S. venezuelae SepH), purified, untagged (Streptomyces venezuelae); assay: SEC; 30 µM protein, Superose 12 10/300 GL, buffer P (50 mM HEPES pH 7.2, 50 mM KCl, 5 mM MgCl2); size predicted from MW standards
[2] = molecular target: FtsZ (S. venezuelae), purified, untagged (Streptomyces venezuelae); assay: co-sedimentation; high speed (350,000 x g, 15 min); 3.5 µM FtsZ, with or without 0.6 µM SepH, 1 mM GMPCCP, buffer P, 30°C
[3] = molecular target: FtsZ (S. venezuelae), purified, untagged (Streptomyces venezuelae); assay: co-sedimentation; high speed (350,000 x g, 15 min); 3.5 µM FtsZ, 0.6 µM SepH or SepH-G79P, with or without 2 mM GTP, buffer P, 30°C; SDS-PAGE, Coomassie, bands quantified
[4] = tested on: T1, SepH (Streptomyces venezuelae NRRL B-65442), ORF:b45d4985; assay: DNase I footprinting; conditions: 50 mM HEPES/KOH pH 7.2, 50 mM KCl, 5 mM MgCl2, room temperature, 30 min (EMSA 50 ng probe in 20 uL, 0.5x TBE gel; footprinting 40 uL)
T1 sequence: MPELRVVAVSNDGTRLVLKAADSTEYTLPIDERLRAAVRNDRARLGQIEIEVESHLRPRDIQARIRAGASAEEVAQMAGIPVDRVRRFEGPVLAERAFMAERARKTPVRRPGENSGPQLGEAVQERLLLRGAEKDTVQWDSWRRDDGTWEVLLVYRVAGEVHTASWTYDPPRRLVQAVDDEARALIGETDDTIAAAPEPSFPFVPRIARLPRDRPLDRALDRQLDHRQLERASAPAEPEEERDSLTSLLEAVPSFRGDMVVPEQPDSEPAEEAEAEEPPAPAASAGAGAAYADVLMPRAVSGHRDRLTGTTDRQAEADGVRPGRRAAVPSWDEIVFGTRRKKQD

[5] = tested on: T1, SepH (Streptomyces venezuelae NRRL B-65442), ORF:b45d4985; assay: EMSA; conditions: 50 mM HEPES/KOH pH 7.2, 50 mM KCl, 5 mM MgCl2, room temperature, 30 min (EMSA 50 ng probe in 20 uL, 0.5x TBE gel; footprinting 40 uL)
[6] = molecular target: SepH-CTD (residues 187-344 of S. venezuelae SepH), purified, untagged (Streptomyces venezuelae); assay: SEC; 30 µM protein, Superose 12 10/300 GL, buffer P (50 mM HEPES pH 7.2, 50 mM KCl, 5 mM MgCl2); size predicted from MW standards
[7] = molecular target: SepH-G79P (S. venezuelae), purified, untagged (Streptomyces venezuelae); assay: as above
[8] = molecular target: FtsZ (S. venezuelae), purified, untagged (Streptomyces venezuelae)
[9] = molecular target: SepH (S. venezuelae), purified, untagged (Streptomyces venezuelae); assay: SEC; 30 µM protein, Superose 12 10/300 GL, buffer P (50 mM HEPES pH 7.2, 50 mM KCl, 5 mM MgCl2); size predicted from MW standards
[10] = molecular target: the molecule itself; assay: SEC; SepHMs, Superose 12 10/300 GL, modified buffer P (50 mM HEPES pH 6.8, 100 mM KCl, 5 mM MgCl2); size predicted from MW standards

Question: “SepH-NTD (residues 1-186 of S. venezuelae SepH), purified, untagged (domain or fragment)” was tested. Which stoichiometry N [1] did it give?
Answer: 2

Question: “FtsZ (S. venezuelae), purified, untagged (natural protein)” was tested. Which percent of FtsZ in the pellet (with GMPCCP) [2] did it give?
Answer: 88%

Question: And the percent of FtsZ in the pellet (with GTP and SepH) [3]?
Answer: 47%

Question: And the percent of FtsZ in the pellet (with GTP and SepH-G79P) [3]?
Answer: 36%

Question: And the percent of FtsZ in the pellet (with GTP) [3]?
Answer: 35%

Question: Which binding [4] does the source give for “GCTGCTCGTCCCCGCGCAGGCGGAACCCGACGACGTCGTCCTGTCCTGGGAGGGGGAGGACGTGCTCGCCGTACGGCTGCCGCAGCTGTCCGAATCCCTCGATCACATCCTGGCGGCGATGGAGCGGCGGCACGGGATGCCACTGGCCGAGCTGGACCGCAAGGCCAAGCAGGAGGCCGTCCGTCTGCTGGAGGCGCGCGGCGCCTTCGCCGTACGCCATGGAGTGGAGACGGTGGCGGGTGCACTCGGTGTCAGCCGC (double strand) [vnz_30075 promoter region probe]” here?
Answer: no binding

Question: How did the binding [5] turn out when “GCGGTCGTCGCCGCGGGCGGAGCCGATGCCCATCAGGGCCGAACCGGCCTCGGACATGACCGACTTGACGTCGGCGAAGTCGAGGTTGATCAGGCCCGGGGTGGTGATGAGGTCGGTGATGCCCTGCACACCGCTCAGCAGCACCTGGTCGGCCGACTTGAAGGCGTCGAGCACGGAGACCTGGCGGTCCGAGATCGACAGGAGCCGGTCGTTGGGGATGACGATGAGGGTGTCGACCTCTTCGCGGAGCTCGGCGATGCC (double strand) [vnz_08520 (ftsZ) internal probe]” was run?
Answer: no binding

Question: With “SepH-CTD (residues 187-344 of S. venezuelae SepH), purified, untagged (domain or fragment)” as the molecule, how does the stoichiometry N [6] read?
Answer: 4

Question: Which binding [5] does the source give for “CCTTCGATCGTCCCTGGTCGGAGCGGCCGGTCGATGATCGAATCGGCGGCTCGGGATGATCACTGCCCGAGTGGGATGCCACCATGCCGACCCATGCGGCGGCTCACTCGAACGGGTCGAACGCGCCGGGGTGCGCGCCCCTCAGGCGCCGTGGGCGCGCCTCTCAGCGGAGAGGACGTGTTCCCCGGGAACGACAAAGCCCCGGTTGGACGGGGGATTCCAACCGGGGCCGATCGCCGTGACGCGAAGGGC (double strand) [vnz_35870 promoter region probe]” here?
Answer: no binding

Question: What about the binding [4] of the same molecule?
Answer: no binding

Question: How did the stoichiometry N [7] turn out when “SepH-G79P (S. venezuelae), purified, untagged (natural protein)” was run?
Answer: 4

Question: And the percent of SepH-G79P in the pellet (with FtsZ and GTP) [3]?
Answer: 50%

Question: With “SepH (S. venezuelae), purified, untagged (natural protein)” as the molecule, how does the critical concentration of FtsZ from the GTPase rate, with 0.6 µM SepH (1.43 µM without SepH) [8] read?
Answer: 1.11 µM

Question: What about the percent of SepH in the pellet (with FtsZ and GMPCCP) [2] of the same molecule?
Answer: 98%

Question: What about the stoichiometry N [9] of the same molecule?
Answer: 4

Question: And the percent of SepH in the pellet (with FtsZ and GTP) [3]?
Answer: 96%

B1: SepHMs-6xHis (SepH from M. smegmatis), purified (natural protein, Mycobacterium smegmatis mc2 155, UniProt A0R430 1-276, looked up)
chain: MRELRVVGLDVDGKRIICETADSAEMFTLRVDDRLRAALRGDKVASNQTEIDLEVQSVLRPKEIQAKIRAGASVEQLAAAAGVPVERVERFAHPVLLERARAAELATAAHPVLADGPSVLTLLETVTKALVARGLDPDAVAWDAWRNEDSRWTVQLAWKAGRSDNVAHFRFTPGSHGGLVTASDDAAHQLINPDFARPLRPVAAVPQLEFEAPQPAQPAAPPQPAQAVPTPEPAPAPEQEPEPAPAPAPKRSRKARATVPAWEDVLLGVRSSGTQR
notes: SepH homolog of Mycobacterium smegmatis mc2 155, MSMEG_5685, in pET21b (pSS561); Tetramer predicted from size exclusion chromatography; also called SepHMs-His6; SepH-6xHis; source: E. coli Rossetta (DE3), purified (HisTrap); not shown: His6, C-terminal, kept
Question: With B1 as the molecule, how does the “stoichiometry N” value [10] read?
Answer: 4
